The values below come from patent publication US20110008345A1 (GlaxoSmithKline, published 2011).

Values joined by “and” are separate entries in the source; they are usually repeats but may differ in a detail not shown here. Equal entries are not always repeated. Where two headings read alike, the source gives them in different places.

One may read the Kd as the concentration at which binding is half-saturated. The term koff denotes the first-order rate constant of dissociation. The term kon denotes a measure of how fast the partners come together. Usually IC50 stands for the midpoint of a concentration-inhibition curve.

Test [1] has as its target T1, recombinant E. coli-expressed human IL-13 (human, UniProt P35225 35-146). The test can be described thus: cell-based or functional assay.
The target of test [2] is T2, recombinant E. coli-expressed human IL-4 (human, UniProt P05112 25-153).
T2 sequence: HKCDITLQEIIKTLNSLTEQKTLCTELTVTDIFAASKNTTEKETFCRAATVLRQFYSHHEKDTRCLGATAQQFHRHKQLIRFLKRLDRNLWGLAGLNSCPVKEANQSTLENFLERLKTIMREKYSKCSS
The test is described as follows: cell-based or functional assay.

Test [3] deals with T1, recombinant E. coli-expressed human …. The test is described as follows: SPR, human IL-4 bound first.
Test [4] has the same target. The test is described as follows: SPR, purified.
Test [5] shares this target. The test is described as follows: SPR. For orientation: Surface plasmon resonance follows binding to a sensor surface in real time, without labels.
The target is the same in test [6]. The test can be described thus: SPR, no IL-4 bound.
Test [7] concerns the target T2, recombinant E. coli-expressed human IL-4. The test is described as follows: ELISA, IL-4 binding to IL4Ralpha-Fc. A general note: ELISA stands for enzyme-linked immunosorbent assay.
Test [8] concerns the target T3, recombinant E. coli-expressed cynomolgus IL-13 (cynomolgus, UniProt Q0PW92 21-132).
T3 construct: also called cyno IL-13
The test is described as follows: SPR.

Test [9] addresses T4, recombinant E. coli-expressed cynomolgus IL-4 (cynomolgus, UniProt P79339 25-153).
T4 construct: also called cyno IL-4
T4 sequence (looked up): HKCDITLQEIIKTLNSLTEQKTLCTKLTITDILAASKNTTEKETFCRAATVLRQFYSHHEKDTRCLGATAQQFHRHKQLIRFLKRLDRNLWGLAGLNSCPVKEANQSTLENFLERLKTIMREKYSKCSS
The test is described as follows: SPR.

Test [10] has as its target T1, recombinant E. coli-expressed human …. The test can be described thus: SPR. The source holds these as a separate data set.
Test [11] has the same target. The test can be described thus: SPR exp 3.
Test [12] addresses T2, recombinant E. coli-expressed human IL-4. The test can be described thus: SPR.
For test [13] the target is unchanged. The test is described as follows: SPR, poor curve fit.
Test [14] has the same target. The test can be described thus: SPR, purified.
The target in test [15] is T3, recombinant E. coli-expressed …. The test can be described thus: SPR. This is another data set of the same source.
The target of test [16] is T1, recombinant E. coli-expressed human …. The test is described as follows: cell-based or functional assay. This is another data set of the same source.
In test [17] the target is T3, recombinant E. coli-expressed …. The test can be described thus: cell-based or functional assay.
Test [18] has as its target T1, recombinant E. coli-expressed human …. The test is described as follows: SPR. The source holds these as a separate data set.
The target in test [19] is T2, recombinant E. coli-expressed human IL-4. The test is described as follows: SPR. This is another data set of the same source.
Test [20] addresses T3, recombinant E. coli-expressed …. The test is described as follows: SPR. The source holds these as a separate data set.
For test [21], the target named is T4, recombinant E. coli-expressed …. The test can be described thus: SPR. This is another data set of the same source.
In test [22] the target is T1, recombinant E. coli-expressed human …. The test is described as follows: cell-based or functional assay. This is another data set of the same source.
Test [23] has as its target T3, recombinant E. coli-expressed …. The test can be described thus: cell-based or functional assay. This is another data set of the same source.
The target in test [24] is T1, recombinant E. coli-expressed human …. The test is described as follows: cell-based or functional assay. The source holds these as a separate data set.
Test [25] deals with T3, recombinant E. coli-expressed …. The test can be described thus: cell-based or functional assay. This is another data set of the same source.
The target of test [26] is T1, recombinant E. coli-expressed human …. The test is described as follows: ELISA, IL-13 binding to IL13Ralpha2/Fc.

B1: 586H-TVAAPS-210 (bispecific antibody, human IgG1, kappa)
heavy: not shown
light: DIVMTQSPLSLPVTPGEPASISCRSSQNIVHINGNTYLEWYLQKPGQSPRLLIYKISDRFSGVPDRFSGSGSGTDFTLKISRVEADDVGIYYCFQGSHVPWTFGQGTKLEIKRTVAAPSVFIFPPSDEQLKSGTASVVCLLNNFYPREAKVQWKVDNALQSGNSQESVTEQDSKDSTYSLSSTLTLSKADYEKHKVYACEVTHQGLSSPVTKSFNRGEC
For the molecule B1, the “Mean IC50 (whole blood phospho-STAT6)” value in test [1] stood at 2.68 nM; in test [2], 1.23 nM. Also, the Kd in [3] was 0.325 nM; in test [4], 0.38 nM; in test [5], 0.4 nM; in test [6], 0.381 nM. In addition, the results for the koff in test [3] and in test [6] were 0.000315 s⁻¹ and 0.000347 s⁻¹, respectively. The kon in [3] was found to be 968000 M⁻¹ s⁻¹; in test [6] it was 909000 M⁻¹ s⁻¹. The IC50 in test [7] was 23.8 nM and 21 nM.

B2: 586H-TVAAPS-210 GS removed (bispecific antibody, human IgG1, kappa)
heavy: not shown
light: DIVMTQSPLSLPVTPGEPASISCRSSQNIVHINGNTYLEWYLQKPGQSPRLLIYKISDRFSGVPDRFSGSGSGTDFTLKISRVEADDVGIYYCFQGSHVPWTFGQGTKLEIKRTVAAPSVFIFPPSDEQLKSGTASVVCLLNNFYPREAKVQWKVDNALQSGNSQESVTEQDSKDSTYSLSSTLTLSKADYEKHKVYACEVTHQGLSSPVTKSFNRGEC
notes: also called BPC1602
B2: the figures for the Kd in [8], in test [10] and in test [11] were 0.058 nM, 0.562 nM and 0.501 nM, respectively. For the same molecule, the koff in [8] turned out to be 2.86e-05 s⁻¹. The kon in test [8] stood at 492000 M⁻¹ s⁻¹. The binding result in [9] is reported as “binds”. For the same molecule, the IC50 in test [7] turned out to be 19.2 nM.

B3: 586H-ELQLE-147 (bispecific antibody, human IgG1, kappa)
heavy: not shown
light: DIVMTQSPLSLPVTPGEPASISCRSSQNIVHINGNTYLEWYLQKPGQSPRLLIYKISDRFSGVPDRFSGSGSGTDFTLKISRVEADDVGIYYCFQGSHVPWTFGQGTKLEIKRTVAAPSVFIFPPSDEQLKSGTASVVCLLNNFYPREAKVQWKVDNALQSGNSQESVTEQDSKDSTYSLSSTLTLSKADYEKHKVYACEVTHQGLSSPVTKSFNRGEC
As to B3, in test [12], the koff amounted to 1.52e-05 s⁻¹ and the kon came out at 701000 M⁻¹ s⁻¹. The Kd in test [13] stood at 0.027 nM. In addition, in test [5], the Kd is 0.51 nM.

B4: 586H-TVAAPS-25 (bispecific antibody, human IgG1, kappa)
heavy: not shown
light: DIVMTQSPLSLPVTPGEPASISCRSSQNIVHINGNTYLEWYLQKPGQSPRLLIYKISDRFSGVPDRFSGSGSGTDFTLKISRVEADDVGIYYCFQGSHVPWTFGQGTKLEIKRTVAAPSVFIFPPSDEQLKSGTASVVCLLNNFYPREAKVQWKVDNALQSGNSQESVTEQDSKDSTYSLSSTLTLSKADYEKHKVYACEVTHQGLSSPVTKSFNRGEC
For the molecule B4, the Kd in [12] was 0.95 nM; in [4] it was 0.38 nM; in test [14], 1.1 nM; in test [5], 0.5 nM. Moreover, the koff in test [12] came out at 0.00012 s⁻¹. In test [12], the kon was 127000 M⁻¹ s⁻¹.

B5: 586H-ELQLE-154 (bispecific antibody, human IgG1, kappa)
heavy: not shown
light: DIVMTQSPLSLPVTPGEPASISCRSSQNIVHINGNTYLEWYLQKPGQSPRLLIYKISDRFSGVPDRFSGSGSGTDFTLKISRVEADDVGIYYCFQGSHVPWTFGQGTKLEIKRTVAAPSVFIFPPSDEQLKSGTASVVCLLNNFYPREAKVQWKVDNALQSGNSQESVTEQDSKDSTYSLSSTLTLSKADYEKHKVYACEVTHQGLSSPVTKSFNRGEC
As for B5, in [12], the koff came out at 3.57e-06 s⁻¹ and the kon worked out at 1.25e+06 M⁻¹ s⁻¹. Besides, the Kd in test [13] amounted to 0.003 nM. The dissociation constant (Kd) in test [5] was 0.44 nM.

B6: 586H-ELQLE-25 (bispecific antibody, human IgG1, kappa)
heavy: not shown
light: DIVMTQSPLSLPVTPGEPASISCRSSQNIVHINGNTYLEWYLQKPGQSPRLLIYKISDRFSGVPDRFSGSGSGTDFTLKISRVEADDVGIYYCFQGSHVPWTFGQGTKLEIKRTVAAPSVFIFPPSDEQLKSGTASVVCLLNNFYPREAKVQWKVDNALQSGNSQESVTEQDSKDSTYSLSSTLTLSKADYEKHKVYACEVTHQGLSSPVTKSFNRGEC
In the case of B6, in test [12], the koff was 1.63e-06 s⁻¹ and the kon is 1.26e+06 M⁻¹ s⁻¹. For the same molecule, the Kd in test [13] is 0.001 nM. For the same molecule, in [5], the Kd worked out at 0.42 nM.

B7: PascoH-TVAAPS-567 (bispecific antibody, human IgG1, kappa)
heavy: not shown
light: DIVLTQSPSSLSASVGDRVTITCKASQSVDYDGDSYMNWYQQKPGKAPKLLIYAASNLESGIPSRFSGSGSGTDFTFTISSLQPEDIATYYCQQSNEDPPTFGQGTKVEIKRTVAAPSVFIFPPSDEQLKSGTASVVCLLNNFYPREAKVQWKVDNALQSGNSQESVTEQDSKDSTYSLSSTLTLSKADYEKHKVYACEVTHQGLSSPVTKSFNRGEC
As to B7, the Kd in test [15] came out at 8.8 nM; in [18], 0.038 nM. Moreover, the koff stood at 0.00522 s⁻¹ in test [15] and 1.7e-05 s⁻¹ in [18]. In addition, the kon turned out to be 592000 M⁻¹ s⁻¹ in [15] and 446000 M⁻¹ s⁻¹ in [18]. In addition, the results for the “Mean ND50 (TF-1)” value in [16] and in test [17] were 2.06 nM and 38.2 nM, respectively. Besides, in test [19], the binding result is given as “binds”.

B8: PascoH-GS-ASTKGPT-474 2nd GS removed (bispecific antibody, human IgG1, kappa)
heavy: not shown
light: DIVLTQSPSSLSASVGDRVTITCKASQSVDYDGDSYMNWYQQKPGKAPKLLIYAASNLESGIPSRFSGSGSGTDFTFTISSLQPEDIATYYCQQSNEDPPTFGQGTKVEIKRTVAAPSVFIFPPSDEQLKSGTASVVCLLNNFYPREAKVQWKVDNALQSGNSQESVTEQDSKDSTYSLSSTLTLSKADYEKHKVYACEVTHQGLSSPVTKSFNRGEC
On to B8, for which, in test [20], the Kd turned out to be 23.8 nM, the koff was 0.0114 s⁻¹ and the kon was determined as 479000 M⁻¹ s⁻¹. In test [21], the Kd was 0.029 nM, the koff was determined as 5.3e-05 s⁻¹ and the kon amounted to 1.83e+06 M⁻¹ s⁻¹. In addition, in test [22], the “Mean ND50 (TF-1)” value stood at 1.37 nM. Further, the “Mean ND50 (TF-1)” value in test [23] came to 21.5 nM.

B9: PascoH-TVAAPS-546 (bispecific antibody, human IgG1, kappa)
heavy: not shown
light: DIVLTQSPSSLSASVGDRVTITCKASQSVDYDGDSYMNWYQQKPGKAPKLLIYAASNLESGIPSRFSGSGSGTDFTFTISSLQPEDIATYYCQQSNEDPPTFGQGTKVEIKRTVAAPSVFIFPPSDEQLKSGTASVVCLLNNFYPREAKVQWKVDNALQSGNSQESVTEQDSKDSTYSLSSTLTLSKADYEKHKVYACEVTHQGLSSPVTKSFNRGEC
Take B9: the Kd in [15] worked out at 12.5 nM; in test [18], 0.747 nM; in test [19] it was 0.00482 nM. The values for the koff in test [15], in test [18] and in [19] were 0.0209 s⁻¹, 0.000169 s⁻¹ and 2.37e-05 s⁻¹, respectively. The kon was 1.67e+06 M⁻¹ s⁻¹ in test [15], 226000 M⁻¹ s⁻¹ in test [18] and 4.92e+06 M⁻¹ s⁻¹ in test [19]. The results for the “Mean ND50 (TF-1)” value in test [16] and in [17] were 1.52 nM and 33.9 nM, respectively.

B10: DOM10-53-616 domain antibody (other)
VH: GVQLLESGGGLVQPGGSLRLSCAASGFVFPWYDMGWVRQAPGKGLEWVSSIDWHGKITYYADSVKGRFTISRDNSKNTLYLQMNSLRAEDTAVYYCATAEDEPGYDYWGQGTLVTVSS
notes: anti-IL-13 dAb
Turning to B10, the “Mean ND50 (TF-1)” value in test [24] amounted to 0.416 nM; in test [25], 4.81 nM; in test [16] it was 0.536 nM; in test [17], 3.57 nM. For the same molecule, the IC50 in test [26] came to 5.76 nM.
